The supplement of paper PMC7877785
± gives the uncertainty stated by the source.

Assay: self-splicing fitness, log relative to wild type (ln ratio); higher = more splicing; Tetrahymena group I intron in knt gene, E. coli kanamycin selection, DiMSum; sequences stand for … in CUCUCU…GGAGGGAAAAGUUAUCAGGCAUGCACCUGGUAGCUAGUCUUUAAACCAAUAGAUUGCAUCGGUUUAAAAGGCAAGACCGUCAAAUUGCGGGAAAGGGGUCAACAGCCGUUCAGUACCAAGUCUCAGGGGAAACUUUGAGAUGGCCUUGCAAAGGGUAUGGUAAUAAGCUGACGGACAUGGUCCUAACCACGCAGCCAAGUCCUAAGUCAACAGAUCUUCUGUUGAUAUGGAUGCAGUUCACAGACUAAAUGUCGGUCGGGGAAGAUGUAUUCUUCUCAUAAGAUAUAGUCGGACCUCUCCUUAAUGGGAGCUAGCGGAUGAAGUGAUGCAACACUGGAGCCGCUGGGAACUAAUUUGUAUGCGAAAGUAUAUUGAUUAGUUUUGGAGUACUCGUGGUCG
In short: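 Pooled colonies went to amplicon sequencing on an Illumina HiSeq 2500 after six replicate transformations. The plates were LB agar with 100 μg/mL carbenicillin, 50 μM IPTG and 0.2% rhamnose, with or without 25 μg/mL kanamycin, incubated overnight at 37°C or 30°C. The E. coli BL21(DE3) library had all eight P1ex-region intron nucleotides randomised, the intron placed in the knt kanamycin-resistance gene on pET-22b(+). DiMSum fitness is the error-weighted combination of replicate fold changes, kanamycin against none, normalised to wild type.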

Sequence | self-splicing fitness (ln) (30 °C) | self-splicing fitness (ln) (37 °C)
AGAUAGCAAUAUUACGUACC | -0.423 ± 0.13 | 0.0629 ± 0.14
AGAUAGCAAUAUUACGUACG | -1.38 ± 0.096 | -0.00695 ± 0.11
AGAUAGCAAUAUUACGUAUU | -2.63 ± 0.14 | -1.35 ± 0.12
AGAUAGCAAUAUUACGUCGU | -1.21 ± 0.082 | -0.136 ± 0.099
AGAUAGCAAUAUUACGUGCG | -1.19 ± 0.06 | -0.409 ± 0.081
AGAUAGCAAUAUUACGUUCC | -1.62 ± 0.2 | -1.48 ± 0.23
AGAUAGCAAUAUUACGUUCG | -0.335 ± 0.1 | 0.123 ± 0.14
AGAUAGCAAUAUUACGUUCU | -2.38 ± 0.14 | -2.02 ± 0.17
AGAUAGCAAUAUUACGUUGA | -3.51 ± 0.24 | -1.5 ± 0.14
AGCAAGCAAUAUUACGAACA | -0.765 ± 0.099 | -0.407 ± 0.12
AGCAAGCAAUAUUACGAAUC | -4.48 ± 0.42 | -1.81 ± 0.2
AGCAAGCAAUAUUACGACCC | -0.234 ± 0.18 | -0.196 ± 0.25
AGCAAGCAAUAUUACGACGA | -0.884 ± 0.14 | -0.398 ± 0.16
AGCAAGCAAUAUUACGAGCG | 0.283 ± 0.061 | -0.223 ± 0.076
AGCAAGCAAUAUUACGAUAU | -2.16 ± 0.13 | -1.51 ± 0.11
AGCAAGCAAUAUUACGAUUC | -2.18 ± 0.13 | -1.04 ± 0.15
AGCAAGCAAUAUUACGCAAC | -3.99 ± 0.31 | 
AGCAAGCAAUAUUACGCACU | -1.89 ± 0.11 | -1.37 ± 0.14
AGCAAGCAAUAUUACGCCGA | -0.81 ± 0.15 | -0.63 ± 0.17
AGCAAGCAAUAUUACGCCGC | -2.89 ± 0.45 | -2.68 ± 0.45
AGCAAGCAAUAUUACGCCUA | -0.835 ± 0.08 | -0.537 ± 0.084
AGCAAGCAAUAUUACGCGCG | -1.54 ± 0.072 | -0.145 ± 0.09
AGCAAGCAAUAUUACGCGGA | -2.04 ± 0.13 | -0.823 ± 0.099
AGCAAGCAAUAUUACGCUAU | -2.4 ± 0.1 | -2.25 ± 0.15

Sequence | self-splicing fitness (ln) (30 °C) | self-splicing fitness (ln) (37 °C)
AGCAAGCAAUAUUACGCUCG | -2.82 ± 0.27 | 
AGCAAGCAAUAUUACGGAAA | -3.46 ± 0.18 | -1.03 ± 0.11
AGCAAGCAAUAUUACGGACU | -0.137 ± 0.084 | -0.455 ± 0.094
AGCAAGCAAUAUUACGGAUU | -1.94 ± 0.07 | -0.407 ± 0.084
AGCAAGCAAUAUUACGGCUG | -0.939 ± 0.077 | -1.4 ± 0.13
AGCAAGCAAUAUUACGGUAG | -3.4 ± 0.14 | -2.75 ± 0.15
AGCAAGCAAUAUUACGUCGC |  | -0.083 ± 0.23
AGCAAGCAAUAUUACGUGAG | -2.58 ± 0.087 | -1.44 ± 0.089
AGCAAGCAAUAUUACGUGAU | -2.1 ± 0.072 | -1.32 ± 0.08
AGCAAGCAAUAUUACGUUUC | -4.44 ± 0.25 | -2.09 ± 0.15
AGCCAGCAAUAUUACGAAUU | -3.14 ± 0.15 | -1.44 ± 0.11
AGCCAGCAAUAUUACGAGUU | -1.84 ± 0.086 | -0.293 ± 0.081
AGCCAGCAAUAUUACGCACC | -0.939 ± 0.18 | -1.12 ± 0.18
AGCCAGCAAUAUUACGCCAU | -1.5 ± 0.2 | -1.89 ± 0.32
AGCCAGCAAUAUUACGCGAG | -1.65 ± 0.13 | -1.29 ± 0.16
AGCCAGCAAUAUUACGCGUC | -2.8 ± 0.13 | -1.23 ± 0.12
AGCCAGCAAUAUUACGCUUC | -3.53 ± 0.22 | -3.48 ± 0.29
AGCCAGCAAUAUUACGCUUG | -3.52 ± 0.17 | -1.58 ± 0.17
AGCCAGCAAUAUUACGGAGG | -3.01 ± 0.14 | -1.8 ± 0.26
AGCCAGCAAUAUUACGGCCU | -2.07 ± 0.14 | -0.992 ± 0.15
AGCCAGCAAUAUUACGGCUA | -2.42 ± 0.15 | -0.727 ± 0.11
AGCCAGCAAUAUUACGGGAU | -4 ± 0.17 | -2.05 ± 0.12
AGCCAGCAAUAUUACGGUAC | -2.97 ± 0.2 | -1.24 ± 0.13
AGCCAGCAAUAUUACGUAAC | -2.67 ± 0.1 | -2.04 ± 0.2
